The record followed here is PMC11032457 (Proceedings of the National Academy of Sciences of the …, 2024).

One data set has as its target T1, TK0186 protein (Thermococcus kodakarensis, UniProt Q5JFM8).
T1 sequence (Q5JFM8 1-417): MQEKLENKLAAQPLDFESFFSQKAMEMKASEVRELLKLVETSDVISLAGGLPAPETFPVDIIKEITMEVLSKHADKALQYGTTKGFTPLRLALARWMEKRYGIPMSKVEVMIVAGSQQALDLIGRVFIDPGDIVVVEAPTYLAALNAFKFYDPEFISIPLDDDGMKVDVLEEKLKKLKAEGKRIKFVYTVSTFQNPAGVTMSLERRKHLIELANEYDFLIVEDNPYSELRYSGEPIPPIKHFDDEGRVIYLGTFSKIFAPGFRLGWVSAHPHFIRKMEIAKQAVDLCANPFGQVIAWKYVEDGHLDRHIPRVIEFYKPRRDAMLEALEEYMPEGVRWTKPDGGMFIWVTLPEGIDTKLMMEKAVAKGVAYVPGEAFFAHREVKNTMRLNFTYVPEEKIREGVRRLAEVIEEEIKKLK
Briefly: glycine formation, HPLC. The class given is biochemical. The note with it: amino donor; 10 mM glyoxylate; 20 μM PLP; 50 mM HEPES pH 7.5; 80 °C.

The target of the next data set is T2, TK1094 protein (Thermococcus kodakarensis, UniProt Q5JE21).
T2 sequence (Q5JE21 1-399): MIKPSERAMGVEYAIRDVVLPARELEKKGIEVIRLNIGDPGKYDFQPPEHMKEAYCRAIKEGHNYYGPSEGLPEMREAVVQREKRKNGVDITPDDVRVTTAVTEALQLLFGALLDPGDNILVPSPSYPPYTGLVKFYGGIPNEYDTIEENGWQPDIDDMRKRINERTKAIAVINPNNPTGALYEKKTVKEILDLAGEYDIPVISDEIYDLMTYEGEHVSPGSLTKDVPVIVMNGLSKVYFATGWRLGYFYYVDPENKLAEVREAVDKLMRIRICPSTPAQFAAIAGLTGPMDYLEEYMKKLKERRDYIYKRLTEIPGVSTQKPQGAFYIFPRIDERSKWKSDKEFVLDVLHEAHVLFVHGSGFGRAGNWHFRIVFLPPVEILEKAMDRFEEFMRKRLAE
Briefly: glycine formation, HPLC. Type of data set: biochemical. The note with it: amino donor; 10 mM glyoxylate; 20 μM PLP; 50 mM HEPES pH 7.5; 80 °C.

Substrate in data set [1]: O=C[C@H](O)[C@H](O)COP(=O)(O)O
Briefly: purified protein. The conditions noted are these: 80 °C, 50 mM MES-NaOH pH 6.5, 10 mM MgCl2.

Substrate in data set [2]: O=C(CO)[C@H](O)[C@H](O)COP(=O)(O)O
Briefly: purified protein. The note with it: 80 °C, 50 mM MES-NaOH pH 6.5, 10 mM MgCl2.

Substrate in data set [3]: O=C(COP(=O)(O)O)[C@H](O)[C@H](O)COP(=O)(O)O
Briefly: purified protein. The note with it: 80 °C, 50 mM MES-NaOH pH 6.5, 10 mM MgCl2.

Substrate in data set [4]: O=C(O)COP(=O)(O)O
Briefly: purified protein. The conditions noted are these: 80 °C.

Substrate in data set [5]: CC[C@H](C)C(=O)C(=O)O
Briefly: purified protein. The conditions noted are these: reduction, 0.3 mM NADH, 85 °C, 50 mM Tris pH 7.5.

Substrate in data set [6]: O=C(O)CO
Briefly: purified protein. The note with it: oxidation, 10 mM NAD+, 80 °C, 50 mM Tris pH 7.5.

Substrate in data set [7]: CC(=O)C(=O)O
Briefly: purified protein. The conditions noted are these: reduction, 0.3 mM NADH, 85 °C, 50 mM Tris pH 7.5.

Substrate in data set [8]: CCCC(=O)C(=O)O
Briefly: purified protein. The conditions noted are these: reduction, 0.3 mM NADH, 85 °C, 50 mM Tris pH 7.5.

Substrate in data set [9]: O=C(O)C(=O)CO
Briefly: purified protein. The conditions noted are these: reduction, 0.3 mM NADH, 85 °C, 50 mM Tris pH 7.5.

Substrate in data set [10]: C[C@@H](O)C(=O)O
Briefly: purified protein. The conditions noted are these: oxidation, 10 mM NAD+, 80 °C, 50 mM Tris pH 7.5.

Substrate in data set [11]: O=CC(=O)O
Briefly: purified protein. The note with it: reduction, 0.3 mM NADH, 85 °C, 50 mM Tris pH 7.5.

Substrate in data set [12]: CC(C)C(=O)C(=O)O
Briefly: purified protein. The conditions noted are these: reduction, 0.3 mM NADH, 85 °C, 50 mM Tris pH 7.5.

The mark [13] stands for this setting: 50 mM MES-NaOH pH 6.5, 10 mM MgCl2.
Where [14] appears, read: 50 mM MES-NaOH pH 7.0, 10 mM MgCl2.

With `C[C@H](N)C(=O)O` [L-alanine], the “glycine formation, HPLC” value is “the most preferred amino donor was L-alanine (Fig. 3E)” at TK0186 protein; “In the case of the TK1094 protein, activity was observed with L-alanine and L-glutamate” at TK1094 protein.

B1: TK2301 protein (Thermococcus kodakarensis KOD1) (protein)
chain: MTIKAISVDIDGTITYPDRRLHEKALEAIRLAESLGVPVMLVTGNTVQFGEAAAILIGTSGPVVGEDGGALSIKEGKLRKRVYLTNMDEEWILWGELKKRYPEALLSFSMPERKAGLVVLRTVPVKAVRELIKELGLNLIAVDSGFAIHIKKPWINKGTGIEKACEYLGISPKEVAHIGDGENDLDAFGVVGYRVAVAQAPESLKEKADYVTTKPYGEGGAEAIEHILRKFGYLPEEKT
The term Km denotes the substrate concentration at which the rate is half of its maximum. In general, kcat refers to the maximal rate divided by the concentration of active sites. Usually kcat/Km stands for the second-order rate constant that governs catalysis at low substrate concentration. Consider B1, for which the Km turned out to be 1250 ± 280 µM in the data set “purified protein [1]”, 979 ± 157 µM in the data set “purified protein [2]”, 238 ± 44 µM in “purified protein [3]” and 1220 ± 90 µM in “purified protein [4]” (setting [13]). The kcat in “purified protein [1]” stood at 17.1 ± 1 s⁻¹; in “purified protein [2]” it was 16.3 ± 0.5 s⁻¹; in the data set “purified protein [3]”, 30.1 ± 1.3 s⁻¹; in “purified protein [4]” (setting [13]) it was 21.2 ± 0.4 s⁻¹. Besides, the kcat/Km in the data set “purified protein [1]” came out at 13700 M⁻¹ s⁻¹; in the data set “purified protein [2]”, 16600 M⁻¹ s⁻¹; in the data set “purified protein [3]”, 126000 M⁻¹ s⁻¹; in “purified protein [4]” (setting [13]) it was 17400 M⁻¹ s⁻¹.

B2: TK1734 protein (2-PG phosphatase) (Thermococcus kodakarensis KOD1) (protein)
chain: MTRKIGIIFDMDGVIYRGSEPINGAKEVIEFLKERKIPFLFLTNNSTRDPAMYREKLLSMGIDVPEDVIVTSGLATRLYMEKHFEPGEVFVIGGKGLLREMERLGWGVVSLEDARKGAWKRIKHVVVGLDPELTYEKLKYGTLAIRNGASFIGTNPDTTYPAEEGLYPGAGAIIAALRASTDREPVIIGKPNEPAYEVVKDKLGDVEELWMVGDRLDTDIAFAKRFGMKAIMVLTGVSTLKDVAESGIKPNLVLPDVGELKRYLEAAL
On to B2, for which, in “purified protein [4]” (setting [14]), the Km is 1750 ± 220 µM, the kcat is 65.6 ± 2.5 s⁻¹ and the kcat/Km worked out at 37500 M⁻¹ s⁻¹.

B3: TK0551 protein (GLDH candidate) (Thermococcus kodakarensis KOD1) (protein)
chain: MRPRVLVTFKMKSKPVEELKKYADVDFLLYPSVEELAEKIKDYDGLIVSPLNRVPREVIERAERLKVISCHSAGYDHVDVEAATKKGIYVTKVSGVLSEAVAEFAVGLTIALLRKFVYTDKLIRRGEWDSHAKIWSTFKDIETVYGKKVGILGMGAIGKAIARRMKAMGTEILYWSRSRKEDIEAEVGAKYLPLDEVLRESDIVILALPATPETYHIINEERIKLLEGKYLVNIGRGTLVDEKAVVKAIEEGRLKGYATDVFEKEPVTEHPLFKYEWETVLTPHHAGLSKEAMEDMGFQAVMNLLAVLRGEIPKDLVNREVVKVRPPEEVKML
B3: the Km is 1930 ± 250 µM in the data set “purified protein [5]”; 24100 ± 1260 µM in the data set “purified protein [6]”; 6890 ± 810 µM in the data set “purified protein [7]”; 1440 ± 90 µM in “purified protein [8]”; 3730 ± 250 µM in the data set “purified protein [9]”; 9900 ± 1150 µM in the data set “purified protein [10]”. Also, the Km in “purified protein [11]” came out at 2870 ± 390 µM; in the data set “purified protein [12]”, 1900 ± 440 µM. The kcat was 18.3 ± 2.2 s⁻¹ in the data set “purified protein [5]”; 0.376 ± 0.009 s⁻¹ in the data set “purified protein [6]”; 12.4 ± 0.6 s⁻¹ in “purified protein [7]”; 14 ± 0.3 s⁻¹ in the data set “purified protein [8]”; 104 ± 3 s⁻¹ in “purified protein [9]”; 0.324 ± 0.013 s⁻¹ in the data set “purified protein [10]”. Moreover, the turnover number (kcat) in the data set “purified protein [11]” turned out to be 186 ± 2 s⁻¹; in the data set “purified protein [12]” it was 15.9 ± 2.2 s⁻¹. Also, the kcat/Km in “purified protein [5]” is 9480 M⁻¹ s⁻¹; in the data set “purified protein [6]”, 15.6 M⁻¹ s⁻¹; in “purified protein [7]”, 1780 M⁻¹ s⁻¹; in “purified protein [8]”, 9720 M⁻¹ s⁻¹; in the data set “purified protein [9]” it was 27900 M⁻¹ s⁻¹; in “purified protein [10]”, 32.7 M⁻¹ s⁻¹. Also, the kcat/Km in the data set “purified protein [11]” is 64800 M⁻¹ s⁻¹; in “purified protein [12]”, 8370 M⁻¹ s⁻¹.

B4: TK0683 protein (GLDH) (Thermococcus kodakarensis KOD1) (protein)
chain: MRPKVFITRAIPENGIEMLKEHFEVEVWPEEREIPREVLLKKVRDVDALVTMLSERIDSEVFDAAPRLRIVANYAVGYDNIDVEEATRRGIYVTNTPDVLTDATADFAWTLLLATARRLIEADHFTRSGEWKRRGIAWHPRWFLGYDVYGKTIGIVGFGRIGQAVARRARGFGMRILYYSRSRKPEAEKELGAEFRSLEDLLRESDFVVLAVPLTKETQYMINEERLRLMKKTAILVNIARGKVVDTKALMKALKEGWIAGAGLDVYEEEPYYNEELFSLKNVVLAPHIGSATYGAREGMAELVARNLIAFKNGEVPPTLVNKEVVKVRKPGF
For the molecule B4, the Michaelis constant (Km) turned out to be 440 ± 60 µM in the data set “purified protein [6]”, 310 ± 70 µM in “purified protein [9]”, 440 ± 60 µM in “purified protein [10]” and 1490 ± 800 µM in “purified protein [11]”. Besides, the catalytic constant (kcat) in “purified protein [6]” was 0.213 ± 0.005 s⁻¹; in “purified protein [9]”, 3130 ± 462 s⁻¹; in the data set “purified protein [10]”, 0.105 ± 0.003 s⁻¹; in the data set “purified protein [11]”, 2030 ± 92 s⁻¹. Further, the kcat/Km in the data set “purified protein [6]” stood at 490 M⁻¹ s⁻¹; in “purified protein [9]”, 1e+07 M⁻¹ s⁻¹; in the data set “purified protein [10]”, 240 M⁻¹ s⁻¹; in “purified protein [11]”, 1.36e+06 M⁻¹ s⁻¹.
